According to US20130158095:

Molecular target: TK substrate 1 (HTRF KinEASE-TK kit; Cisbio Inc.)

B1: EML4-ALK fusion polypeptide v1 having the FLAG tag at the N-terminus (protein)
chain: GFAGSLDDSISAASTSDVQDRLSALESRVQQQEDEITVLKAALADVLRRLAISEDHVASVKKSVSSKGQPSPRAVIPMSCITNGSGANRKPSHTSAVSIAGKETLSSAAKSGTEKKKEKPQGQREKKEESHSNDQSPQIRASPSPQPSSQPLQIHRQTPESKNATPTKSIKRPSPAEKSHNSWENSDDSRNKLSKIPSTPKLIPKVTKTADKHKDVIINQEGEYIKMFMRGRPITMFIPSDVDNYDDIRTELPPEKLKLEWAYGYRGKDCRANVYLLPTGEIVYFIASVVVLFNYEERTQRHYLGHTDCVKCLAIHPDKIRIATGQIAGVDKDGRPLQPHVRVWDSVTLSTLQIIGLGTFERGVGCLDFSKADSGVHLCVIDDSNEHMLTVWDWQKKAKGAEIKTTNEVVLAVEFHPTDANTIITCGKSHIFFWTWSGNSLTRKQGIFGKYEKPKFVQCLAFLGNGDVLTGDSGGVMLIWSKTTVEPTPGKGPKVYRRKHQELQAMQMELQSPEYKLSKLRTSTIMTDYNPNYCFAGKTSSISDLKEVPRKNITLIRGLGHGAFGEVYEGQVSGMPNDPSPLQVAVKTLPEVCSEQDELDFLMEALIISKFNHQNIVRCIGVSLQSLPRFILLELMAGGDLKSFLRETRPRPSQPSSLAMLDLLHVARDIACGCQYLEENHFIHRDIAARNCLLTCPGPGRVAKIGDFGMARDIYRASYYRKGGCAMLPVKWMPPEAFMEGIFTSKTDTWSFGVLLWEIFSLGYMPYPSKSNQEVLEFVTSGGRMDPPKNCPGPVYRIMTQCWQHQPEDRPNFAIILERIEYCTQDPDVINTALPIEYGPLVEEEEKVPVRPKDPEGVPPLLVSQQAKREEERSPAAPPPLPTTSSGKAAKKPTAAEVSVRVPRGPAVEGGHVNMAFSQSNPPSELHRVHGSRNKPTSLWNPTYGSWFTEKPTKKNNPIAKKEPHERGNLGLEGSCTVPPNVATGRLPGASLLLEPSSLTANMKEVPLFRLRHFPCGNVNYGYQQQGLPLEAATAPGAGHYEDTILKSKNSMNQPGP
- count of HTRF (that is, phosphorylation of the peptide substrate): increased by about 12 times by the addition of ATP compare to no addition of ATP
